Results reported in paper PMC12521702, “Development of a trispecific fusion protein based on angiotensin-converting enzyme 2, glycoprotein 130, and tumor necrosis factor receptor 2 as a promising therapeutic for COVID-19” (Molecular Biomedicine, 2025).

Key:
mouse Hyper-IL-6 = biological target: T1, mouse Hyper-IL-6 (mouse, UniProt P22272;P08505); test: ELISA; plates coated with 2 μg/mL Hyper-IL-6-His in carbonate-bicarbonate buffer pH 9.6; serial dilutions of fusion proteins from 50 nM, 1 h at 37 °C; HRP anti-human IgG; settings: both partners purified
T1 construct: also called murine Hyper-IL-6; Hyper-IL-6-His; not shown: His tag, C-terminal, kept
T1 chain: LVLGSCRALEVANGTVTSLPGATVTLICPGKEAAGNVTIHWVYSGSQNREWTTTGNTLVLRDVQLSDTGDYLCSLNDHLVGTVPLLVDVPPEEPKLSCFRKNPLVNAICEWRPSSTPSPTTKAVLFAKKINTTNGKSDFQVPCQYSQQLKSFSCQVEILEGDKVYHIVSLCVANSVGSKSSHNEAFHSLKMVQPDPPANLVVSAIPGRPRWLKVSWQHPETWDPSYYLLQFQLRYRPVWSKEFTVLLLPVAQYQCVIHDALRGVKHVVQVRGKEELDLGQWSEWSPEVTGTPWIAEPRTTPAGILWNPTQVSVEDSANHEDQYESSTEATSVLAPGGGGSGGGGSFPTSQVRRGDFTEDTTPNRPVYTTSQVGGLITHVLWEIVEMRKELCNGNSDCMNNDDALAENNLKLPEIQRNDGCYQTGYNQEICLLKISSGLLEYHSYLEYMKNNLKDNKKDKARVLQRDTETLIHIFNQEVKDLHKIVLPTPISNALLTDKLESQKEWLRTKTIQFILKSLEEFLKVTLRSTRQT

human Hyper-IL-6 = human Hyper-IL-6 (human, UniProt P08887 20-355); test: as above; settings: both partners purified

B1: ACE2 (M)-Fc-mGP130 (Fc fusion)
chain: QSTIEEQAKFFLDYFNHEAEDLFYQSSLASWNYNTNITEENVQNMNNAGDKWSAFLKEQSTWAQMYPLQEIQNLTVKLQLQALQQNGSSVLSEDKSKRLNTILNTMSTIYSTGKVCNPDNPQECLLLEPGLNEIMANSLDYNERLWAWESWRSEVGKQLRPLYEEYVVLKNEMARANHYEDYGDYWRGDYEVNGVDGYDYSRGQLIEDVEHTFEEIKPLYEHLHAYVRAKLMNAYPSYISPIGCLPAHLLGDMWGQFWTNLYSLTVPFGQKPNIDVTDAMVDQAWDAQRIFKEAEKFFVSVGLPNMTQGFWEYSMLTDPGNVQKAVCHPTAWDLGKGDFRILMCTKVTMDDFLTAHHEMGHIQYDMAYAAQPFLLRNGANEGFHEAVGEIMSLSAATPKHLKSIGLLSPDFQEDNETEINFLLKQALTIVGTLPFTYMLEKWRWMVFKGEIPKDQWMKKWWEMKREIVGVVEPVPHDETYCDPASLFHVSNDYSFIRYYTRTLYQFQFQEALCQAAKHEGPLHKCDISNSTEAGQKLFNMLRLGKSEPWTLALENVVGAKNMNVRPLLNYFEPLFTWLKDQNKNSFVGWSTDWSPYADQSIKVRISLKSALGDKAYEWNDNEMYLFRSSVAYAMRQYFLKVKNQMILFGEEDVRVANLKPRISFNFFVTAPKNVSDIIPRTEVEKAIRMSRSRINDAFRLNDNSLEFLGIQPTLGPPNQPPVSGGGGSGGGGSGGGGSQLLEPCGYIYPEFPVVQRGSNFTAICVLKEACLQHYYVNASYIVWKTNHAAVPREQVTVINRTTSSVTFTDVVLPSVQLTCNILSFGQIEQNVYGVTMLSGFPPDKPTNLTCIVNEGKNMLCQWDPGRETYLETNYTLKSEWATEKFPDCQSKHGTSCMVSYMPTYYVNIEVWVEAENALGKVSSESINFDPVDKVKPTPPYNLSVTNSEELSSILKLSWVSSGLGGLLDLKSDIQYRTKDASTWIQVPLEDTMSPRTSFTVQDLKPFTEYVFRIRSIKDSGKGYWSDWSEEASGTTYEDRPSRPPSFWYKTNPSHGQEYRSVRLIWKALPLSEANGKILDYEVILTQSKSVSQTYTVTGTELTVNLTNDRYVASLAARNKVGKSAAAVLTIPSPHVTAAYSVVNLKAFPKDNLLWVEWTPPPKPVSKYILEWCVLSENAPCVEDWQQEDATVNRTHLRGRLLESKCYQITVTPVFATGPGGSESLKAYLKQAAPARGPTVRTKKVGKNEAVLAWDQIPVDDQNGFIRNYSISYRTSVGKEMVVHVDSSHTEYTLSSLSSDTLYMVRMAAYTDEGGKDGPEFTFTTPKFAQGEIE
EC50 (mouse Hyper-IL-6): 1.83 nM

B2: ACE2 (M)-Fc-hGP130 (Fc fusion)
chain: QSTIEEQAKFFLDYFNHEAEDLFYQSSLASWNYNTNITEENVQNMNNAGDKWSAFLKEQSTWAQMYPLQEIQNLTVKLQLQALQQNGSSVLSEDKSKRLNTILNTMSTIYSTGKVCNPDNPQECLLLEPGLNEIMANSLDYNERLWAWESWRSEVGKQLRPLYEEYVVLKNEMARANHYEDYGDYWRGDYEVNGVDGYDYSRGQLIEDVEHTFEEIKPLYEHLHAYVRAKLMNAYPSYISPIGCLPAHLLGDMWGQFWTNLYSLTVPFGQKPNIDVTDAMVDQAWDAQRIFKEAEKFFVSVGLPNMTQGFWEYSMLTDPGNVQKAVCHPTAWDLGKGDFRILMCTKVTMDDFLTAHHEMGHIQYDMAYAAQPFLLRNGANEGFHEAVGEIMSLSAATPKHLKSIGLLSPDFQEDNETEINFLLKQALTIVGTLPFTYMLEKWRWMVFKGEIPKDQWMKKWWEMKREIVGVVEPVPHDETYCDPASLFHVSNDYSFIRYYTRTLYQFQFQEALCQAAKHEGPLHKCDISNSTEAGQKLFNMLRLGKSEPWTLALENVVGAKNMNVRPLLNYFEPLFTWLKDQNKNSFVGWSTDWSPYADQSIKVRISLKSALGDKAYEWNDNEMYLFRSSVAYAMRQYFLKVKNQMILFGEEDVRVANLKPRISFNFFVTAPKNVSDIIPRTEVEKAIRMSRSRINDAFRLNDNSLEFLGIQPTLGPPNQPPVSGGGGSGGGGSGGGGSELLDPCGYISPESPVVQLHSNFTAVCVLKEKCMDYFHVNANYIVWKTNHFTIPKEQYTIINRTASSVTFTDIASLNIQLTCNILTFGQLEQNVYGITIISGLPPEKPKNLSCIVNEGKKMRCEWDGGRETHLETNFTLKSEWATHKFADCKAKRDTPTSCTVDYSTVYFVNIEVWVEAENALGKVTSDHINFDPVYKVKPNPPHNLSVINSEELSSILKLTWTNPSIKSVIILKYNIQYRTKDASTWSQIPPEDTASTRSSFTVQDLKPFTEYVFRIRCMKEDGKGYWSDWSEEASGITYEDRPSKAPSFWYKIDPSHTQGYRTVQLVWKTLPPFEANGKILDYEVTLTRWKSHLQNYTVNATKLTVNLTNDRYLATLTVRNLVGKSDAAVLTIPACDFQATHPVMDLKAFPKDNMLWVEWTTPRESVKKYILEWCVLSDKAPCITDWQQEDGTVHRTYLRGNLAESKCYLITVTPVYADGPGSPESIKAYLKQAPPSKGPTVRTKKVGKNEAVLEWDQLPVDVQNGFIRNYTIFYRTIIGNETAVNVDSSHTEYTLSSLTSDTLYMVRMAAYTDEGGKDGPEFTFTTPKFAQGEIE
EC50 (human Hyper-IL-6): 1.55 nM
